The results in this text go back to patent US20260022176A1 (PARAGON THERAPEUTICS, published 2026).

The target of test [1] is T1, mouse α4β7 integrin on mouse PBMCs (mouse, UniProt Q00651 41-1039; P26011 20-806).
T1 construct: whole, on cells; That the target on them is α4β7 is inferred from the purpose of the study; also called cells isolated from mice
The experiment in a line: flow cytometry on cryopreserved mouse PBMCs.

Test [2] deals with T2, monkey α4β7 integrin on monkey PBMCs (monkey).
T2 construct: whole, on cells; Receptor occupancy on CD4+, CD20+ and CD45RO+ cells from monkey donors
The experiment in a line: receptor occupancy: competition with fluorescently labeled antibody, flow cytometry; CD4+ Th cells, monkey PBMCs; range, n = 3 donors. On the procedure:
(§1) The IC₅₀ values for competitive inhibition were determined by titrating unlabeled Ab001 into samples equilibrated with EC₅₀ concentrations of fluorescently labeled Ab001. Ab001 and Comparator Antibody Receptor Occupancy (IC₅₀) on CD4+, CD20+, and CD45RO+Cells from Human and Monkey Donors are shown in Table 2B.

The target in test [3] is T3, rat α4β7 integrin on rat PBMCs (rat, UniProt D3ZMQ3 38-1036; G3V7M2 20-791).
T3 construct: whole, on cells; That the target on them is α4β7 is inferred from the purpose of the study; also called cells isolated from rats
The experiment in a line: flow cytometry on cryopreserved rat PBMCs.

The target in test [4] is T2, monkey α4β7 integrin on monkey PBMCs. The experiment in a line: receptor occupancy: competition with fluorescently labeled antibody, flow cytometry; CD20+ B cells, monkey PBMCs; range, n = 3 donors. The method, then: as §1
A further test addresses T4, Cyno- α4β7 (Cyno).
T4 construct: SPR antigen; construct not described; also called cynomolgus α4β7 integrin
The experiment in a line: SPR with multiple cycle kinetics.

In the next test the target is T5, Rabbit- α4β7 (Rabbit, UniProt G1TY34 34-977; G1SFE7 20-723).
T5 construct: SPR antigen; construct not described; also called rabbit α4β7 integrin; copies: 1 + 1
Briefly: SPR with multiple cycle kinetics.

The next test concerns the target T6, Dog- α4β7 (Dog, UniProt A0A8I3PRY8 36-976; A0A8I3P7W0 20-723).
T6 construct: SPR antigen; construct not described; also called dog α4β7 integrin; copies: 1 + 1
Briefly: SPR with multiple cycle kinetics.

In test [5] the target is T2, monkey α4β7 integrin on monkey PBMCs. Briefly: receptor occupancy: competition with fluorescently labeled antibody, flow cytometry; all cell types, monkey PBMCs; mean, n = 7. The method, then:
as §1

Test [6] shares this target. Briefly: receptor occupancy: competition with fluorescently labeled antibody, flow cytometry; CD45RO+ memory T cells, monkey PBMCs; n = 1 donor. The method, then:
as §1

The target of test [7] is α4β1 integrin on cells (α4β1-positive Ramos cells; HuT-78 cells) (UniProt P13612 34-1032; P05556 21-798, limits assumed). Briefly: cell-based or functional assay.

Where “and” joins values, the source holds several entries; their conditions need not be identical. Identical values can stand only once.

B1: α4β7 binding antibody Ab001 (antibody, human IgG1, kappa)
heavy: QVQLVQSGAEVKKPGASVKVSCKGSGYTFTSYWMHWVRQAPGQRLEWIGEIDPSESNTNYNQKFKGRVTLTVDISASTAYMELSSLRSEDTAVYYCARGGYDGWDYAIDYWGQGTLVTVSSASTKGPSVFPLAPSSKSTSGGTAALGCLVKDYFPEPVTVSWNSGALTSGVHTFPAVLQSSGLYSLSSVVTVPSSSLGTQTYICNVNHKPSNTKVDKKVEPKSCDKTHTCPPCPAPELAGAPSVFLFPPKPKDTLYITREPEVTCVVVDVSHEDPEVKFNWYVDGVEVHNAKTKPREEQYNSTYRVVSVLTVLHQDWLNGKEYKCKVSNKALPAPIEKTISKAKGQPREPQVYTLPPSRDELTKNQVSLTCLVKGFYPSDIAVEWESNGQPENNYKTTPPVLDSDGSFFLYSKLTVDKSRWQQGNVFSCSVMHEALHNHYTQKSLSLSPG
light: DVVMTQSPLSLPVTPGEPASISCRSSQSLAKSYGNTYLSWYLQKPGQSPQLLIYGISNRFSGVPDRFSGSGSGTDFTLKISRVEAEDVGVYYCLQGTHQPYTFGQGTKVEIKRTVAAPSVFIFPPSDEQLKSGTASVVCLLNNFYPREAKVQWKVDNALQSGNSQESVTEQDSKDSTYSLSSTLTLSKADYEKHKVYACEVTHQGLSSPVTKSFNRGEC
notes: also called long acting α4β7 targeting molecule; Ab001-A647
Take B1: the binding result in [1] and in test [3] was “no binding” in each case. The IC50 in test [2] is 0.49 nM and 0.54 nM; in [4], 0.46 nM and 0.5 nM; in test [5] it was 0.5 nM; in [6], 0.53 nM. The Kd in the test with Cyno- α4β7 was 2.72 nM; in the test with Rabbit- α4β7, 6.26 nM; with Dog- α4β7, 4.81 nM.

B2: comparator antibody (antibody, human IgG1, kappa)
heavy: not shown
light: DVVMTQSPLSLPVTPGEPASISCRSSQSLAKSYGNTYLSWYLQKPGQSPQLLIYGISNRFSGVPDRFSGSGSGTDFTLKISRVEAEDVGVYYCLQGTHQPYTFGQGTKVEIKRTVAAPSVFIFPPSDEQLKSGTASVVCLLNNFYPREAKVQWKVDNALQSGNSQESVTEQDSKDSTYSLSSTLTLSKADYEKHKVYACEVTHQGLSSPVTKSFNRGEC
Take B2: the binding result in test [1] and in [3] was “no binding” each time. In addition, the IC50 in test [2] is 0.48 nM and 0.6 nM; in test [4], 0.42 nM and 0.66 nM; in [5], 0.56 nM; in [6], 0.58 nM. Moreover, the dissociation constant (Kd) was 1.2 nM in the test with Cyno- α4β7, 5.34 nM with Rabbit- α4β7 and 1.77 nM in the test with Dog- α4β7.

B3: Natalizumab (antibody, V domains shown)
VH: QVQLVQSGAEVKKPGASVKVSCKASGFNIKDTYIHWVRQAPGQRLEWMGRIDPANGYTKYDPKFQGRVTITADTSASTAYMELSSLRSEDTAVYYCAREGYYGNYGVYAMDYWGQGTLVTVSS
VL: DIQMTQSPSSLSASVGDRVTITCKTSQDINKYMAWYQQTPGKAPRLLIHYTSALQPGIPSRFSGSGSGRDYTFTISSLQPEDIATYYCLQYDNLWTFGQGTKVEIK
Regarding B3, the “VCAM-1 Inhibition IC50 (adhesion of HuT-78 cells to coated recombinant VCAM-1)” value in [7] worked out at 0.23 nM.
